According to patent publication US20160347848A1 (AstraZeneca / MedImmune, published 2016):

T1: human OX40 (human, UniProt P43489 29-277)
T1 construct: The form used for the Y182A statement ('native') is not described; also called native human OX40; CD134
T1 sequence: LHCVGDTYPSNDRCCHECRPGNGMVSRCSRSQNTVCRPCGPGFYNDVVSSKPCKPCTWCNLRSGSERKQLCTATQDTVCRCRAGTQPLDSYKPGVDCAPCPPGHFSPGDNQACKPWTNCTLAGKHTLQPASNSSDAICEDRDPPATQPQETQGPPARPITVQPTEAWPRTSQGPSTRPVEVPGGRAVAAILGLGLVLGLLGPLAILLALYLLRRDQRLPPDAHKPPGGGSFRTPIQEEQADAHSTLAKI

T2: mouse OX40 (mouse, UniProt P47741 20-272, limits assumed)
T2 construct: also called native mouse OX40
T2 sequence (looked up): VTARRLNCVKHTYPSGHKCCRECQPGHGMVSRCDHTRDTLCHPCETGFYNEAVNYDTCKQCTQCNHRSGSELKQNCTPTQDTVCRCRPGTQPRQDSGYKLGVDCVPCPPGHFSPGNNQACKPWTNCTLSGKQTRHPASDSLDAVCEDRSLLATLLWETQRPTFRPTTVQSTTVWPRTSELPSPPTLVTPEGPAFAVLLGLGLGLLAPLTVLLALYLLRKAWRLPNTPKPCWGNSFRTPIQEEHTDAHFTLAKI


Key:
Test in all cases: not described
[1] = biological target: mouse PD-L1 (mouse, UniProt Q9EP73 19-239, limits assumed)
[2] = biological target: T1, human OX40
[3] = biological target: T2, mouse OX40

Sequence of mouse PD-L1 (Q9EP73 19-239 limits assumed): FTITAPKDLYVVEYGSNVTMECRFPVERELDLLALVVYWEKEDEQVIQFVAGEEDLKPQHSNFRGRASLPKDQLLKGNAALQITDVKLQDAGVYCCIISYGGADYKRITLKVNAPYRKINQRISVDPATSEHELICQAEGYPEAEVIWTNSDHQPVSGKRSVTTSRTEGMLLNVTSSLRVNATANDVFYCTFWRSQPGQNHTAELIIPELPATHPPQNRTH

| binding result [1] | binding result [2] | binding result [3] | Binder |
| --- | --- | --- | --- |
| no binding |  |  | MEDI4736 (antibody, human IgG1, V domains shown, also called 2.14H9OPT) VH: EVQLVESGGGLVQPGGSLRLSCAASGFTFSRYWMSWVRQAPGKGLEWVANIKQDGSEKYYVDSVKGRFTISRDNAKNSLYLQMNSLRAEDTAVYYCAREGGWFGELAFDYWGQGTLVTVSS VL: EIVLTQSPGTLSLSPGERATLSCRASQRVSSSYLAWYQQKPGQAPRLLIYDASSRATGIPDRFSGSGSGTDFTLTISRLEPEDFAVYYCQQYGSLPWTFGQGTKVEIK |
|  | no binding | no binding | Y182A mutant mouse OX40L mouse IgG1 fusion protein control (Fc fusion, UniProt P43488 51-198, looked up, also called OX40L FP Y182A; mOX40L FP Y182A; not shown: mouse IgG1 Fc domain and any linker or trimerization domain) SSSPAKDPPIQRLRGAVTRCEDGQLFISSYKNEYQTMEVQNNSVVIKCDGLYIIYLKGSFFQEVKIDLHFREDHNPISIPMLNDGRRIVFTVVASLAFKDKVYLTVNAPDTLCEHLQINDGELIVVQLTPGACAPEGSYHSTVNQVPL |
